Assay results published in article PMC7751889 (Molecular cell, 2019).

Target: T1, Med15 (residues 1-651 Δ239-271, Δ373-483), mediator component (yeast, UniProt P19659 1-651, Δ239–271 | Δ373–483)
T1 sequence (looked up): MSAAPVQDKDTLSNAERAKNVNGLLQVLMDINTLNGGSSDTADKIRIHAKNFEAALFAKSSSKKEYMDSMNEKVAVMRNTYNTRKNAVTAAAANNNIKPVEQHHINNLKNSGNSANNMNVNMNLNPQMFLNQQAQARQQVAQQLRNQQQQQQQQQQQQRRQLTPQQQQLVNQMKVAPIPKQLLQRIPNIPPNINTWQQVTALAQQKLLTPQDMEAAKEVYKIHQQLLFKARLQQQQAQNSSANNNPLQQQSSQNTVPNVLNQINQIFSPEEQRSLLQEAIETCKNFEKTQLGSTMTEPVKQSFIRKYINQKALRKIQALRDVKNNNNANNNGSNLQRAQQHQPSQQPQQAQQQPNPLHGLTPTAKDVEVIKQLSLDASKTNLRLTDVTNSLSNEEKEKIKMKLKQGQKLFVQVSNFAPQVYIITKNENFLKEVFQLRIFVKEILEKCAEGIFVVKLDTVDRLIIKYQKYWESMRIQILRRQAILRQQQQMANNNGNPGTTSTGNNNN
Test: BLI

B1: Met4 (residues 76 to 160), containing both the UIM and the UIML domains (tandem UBD) (domain or fragment, yeast, UniProt P32389 76-160, looked up)
chain: GNTNLYDHAVTPEILLEQLAYVDNFIPSLDNEFSNVDWNVNTTHNNANNNGADTFSSINANPFDLDEQLAIELSAFADDSFIFPD
modifications: biotin on the Avi tag (BirA)
Kd: 100 nM
